The target in the assay is GST-MKK7 (GST-JNKK2; human JNKK2 in pGEX-2T) (human) (UniProt O14733). Kind of assay: in vitro pull-down with purified GST-MKK7 and increasing His6/T7-tagged protein, anti-T7 Western blot; JIP1 under non-saturating conditions.
Sequence of GST-MKK7 (GST-JNKK2; human JNKK2 in pGEX-2T) (human) (O14733 1-401 Q94H/Q133P): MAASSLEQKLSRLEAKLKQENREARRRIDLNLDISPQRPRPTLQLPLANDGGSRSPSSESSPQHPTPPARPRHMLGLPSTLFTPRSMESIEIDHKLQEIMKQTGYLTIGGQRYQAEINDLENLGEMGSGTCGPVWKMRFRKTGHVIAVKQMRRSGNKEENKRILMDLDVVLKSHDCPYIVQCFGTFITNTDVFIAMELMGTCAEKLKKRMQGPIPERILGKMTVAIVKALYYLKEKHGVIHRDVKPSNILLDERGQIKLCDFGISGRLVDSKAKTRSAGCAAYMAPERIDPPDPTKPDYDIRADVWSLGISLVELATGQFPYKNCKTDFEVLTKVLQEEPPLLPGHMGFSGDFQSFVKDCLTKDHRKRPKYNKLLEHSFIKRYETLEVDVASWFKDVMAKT

Take “His6/T7-JIP1 (MKK7-binding domain of JIP1b, pET28)”: the half maximum binding (HMB) was over 650 nM.

For the origin of these results see patent US20050265970A1.
